Results reported in PMC6171537 (Biochemistry and Biophysics Reports, 2018).

Molecular target: the molecule itself
Test: SEC-MALS

B1: LOV-HK (blue light-activated histidine kinase from Brucella abortus), construct 15-489 (enzyme)
chain: MALSQATDPFRAAVEFTLMPMLITNPHLPDNPIVFANPAFLKLTGYEADEVMGRNCRFLQGHGTDPAHVRAIKSAIAAEKPIDIDIINYKKSGEAFWNRLHISPVHNANGRLQHFVSSQLDVTLELSRLVELEKERKTLSIETARSKDQLDYIVEVANIGFWTREFYSGKMTCSAECRRIYGFTPDEPVHFDTILDLVVLEDRMTVVQKAHQAVTGEPYSIEYRIVTRLGETRWLETRAKALTGENPLVLGIVQDVTERKKAEANKALVSREIAHRFKNSMAMVQSIANQTLRNTYDPEQANRLFSERLRALSQAHDMLLKENWAGATIQQICATALAPFNSTFANRIHMSGPHLLVSDRVTVALSLAFYELATNAVKYGALSNEKGVINITWAIMEDKGEKKFHMRWAESRGPEVMQPARRGFGQRLLHSVLAEELKAKCDVEFAASGLLIDVLAPITPEVFPGMGHNVPEQRIA
notes: also called pET-24a-LOVHK-15-489
- stoichiometry N: 2
